Data on one protein can be found in article PMC2914802.

Test in all cases: steady-state hydrolysis kinetics
Assay type in all cases: biochemical, Burkholderia lata
Holding throughout (settings): Zn2+; pH 8.0

Substrate in data set [1]: CCC(=O)N1CCC[C@H]1C(=O)O
Substrate in data set [2]: CCCC(=O)N1CCC[C@H]1C(=O)O
Substrate in data set [3]: CC(=O)N1CCC[C@H]1C(=O)O

B1: Sgx9260c (Burkholderia lata) (protein)
chain: MTITVLQGGNVLDLERGVLLDHHHVVIDGDRIVEVTDRPVDFPNAQVIDVRGKTVMPGFIDCHVHVLASNANLGANATQPNILAAIRSLPILDAMLSRGFTSVRDAGGADWSLMQAVETGLVSGPRIFPSGKALSQTGGHGDFRPRGDLLEPCSCCFRTGAIARVVDGVEGVRLAVREEIQKGATQIKIMASGGVASPTDPIANTQYSEDEIRAIVDEAEAANTYVMAHAYTGRAIARAVRCGVRTIEHGNLVDEAAAKLMHEHGAFVVPTLVTYDALAKHGAEFGMPPESVAKVASVQQKGRESLEIYANAGVKMGFGSDLLGEMHEFQSGEFRIRAEVLGNLEALRSATTVAAEIVNMQGQLGVVAAGAIADLVVLDGNPLEDIGVVAGQGERVEYVLQRGRIVKAREFRRTMARE
Consider B1, for which the Michaelis-Menten constant (Km) was 1900 ± 200 µM in data set [1], 2600 ± 300 µM in data set [2] and 800 ± 100 µM in data set [3]. Besides, the kcat in data set [1] came to 141 ± 6 s⁻¹; in data set [2] it was 146 ± 6 s⁻¹; in data set [3], 227 ± 9 s⁻¹. Moreover, the values for the catalytic efficiency (kcat/Km) in data set [1], in data set [2] and in data set [3] were 74000 M⁻¹ s⁻¹, 56000 M⁻¹ s⁻¹ and 280000 M⁻¹ s⁻¹, respectively.

The Km is the concentration of substrate that gives half-maximal velocity. The kcat is the maximal rate divided by the concentration of active sites. Broadly, the kcat/Km is the turnover number divided by the Michaelis constant.
